pKd: −log10 of the molar value.
Columns and labels:
Experiment in all cases: fluorescence polarisation; FITC-tagged peptide ('2 nm' [sic]) with importin two-fold serially diluted from 4.5 µM across 23 wells, 200 µl, GST Buffer A (50 mM Tris, 125 mM NaCl); three independent experiments
[1] = target: Synthetic FITC labelled AAV 09YN Cap-BR peptide (residues 117-167)
[2] = target: AAV 09YN Cap-BR-mMINOR+mMAJOR (FITC labelled peptide, residues 117-167, minor and major site mutant)
[3] = target: AAV 09YN Cap-BR-mMINOR (FITC labelled peptide, residues 117-167, minor site mutant)
[4] = target: AAV 09YN Cap-BR-mMAJOR (FITC labelled peptide, residues 117-167, major site mutant)

Row | Substance | pKd [1] | pKd [2] | pKd [3] | pKd [4]
1 | Human importin α1 lacking the IBB domain (hImpα1DIBB) (domain or fragment) | 6.32 | – | – | –
2 | Human importin α3 lacking the IBB domain (hImpα3DIBB) (domain or fragment) | 9.00 | 8.85 | 8.80 | 8.92
3 | Human importin α5 lacking the IBB domain (hImp5DIBB) (domain or fragment) | 6.06 | – | – | –
4 | Human importin α7 lacking the IBB domain (hImpα7DIBB) (domain or fragment) | 7.96 | – | – | –
5 | Human importin β (hImpβ) (from UniProt Q14974 1-876) (natural protein) | 5.94 | – | – | –

Reference: article PMC10999750
